Data as given in the supplement of paper PMC10567573.

B1: FUT8 (parent)
chain: NWRYATGGWETVFRPVSETCTDRS
B2: CPXM2 (parent)
chain: EILGCPLPDPNNYYHRRNEMTTTD

Variants of: B1
Test: protein stability index of a GFP-peptide fusion (GPS, HEK-293T) (PSI 1-6); higher = more stable
Settings: c terminus: a fixed tail appended
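Also: lentivirally expressed fusions sorted by FACS into six bins by GFP to DsRed ratio, PSI derived from sequencing read proportions per bin multiplied by bin number.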

Protein stability index, by site and new letter:
T21: M 3.38 | G 1.47 | D 1.34 | K 2.49 | Y 1.84 | F 2.31 | L 2.43 | E 1.55 | H 1.56 | R 2.8 | P 1.26 | A 1.39 | V 1.9
C20: Q 1.84 | Y 2.24 | W 3.63 | S 1.75 | T 1.04 | V 1.88
D22: R 1.84 | S 2.43 | W 1.25 | E 2.33 | C 1.93 | I 2.98 | Y 2.07 | T 3.48 | L 1.7 | P 1.48 | Q 1.69 | M 1.9 | N 1.24 | H 1.45 | K 2.12 | V 1.54
R23: G 1.6 | K 1.92 | A 2.36 | L 3.42 | V 2.89 | W 1.91 | H 3.12 | F 1.77 | I 1.21 | S 1.56 | N 1.44 | Y 2.49 | P 2.08 | M 2.34 | E 1.75 | T 2.02 | D 2.41
S24: M 1.96 | V 2.67 | T 2.03 | A 1.69 | I 1.71 | Q 2.72 | D 1.76 | L 2.3 | H 1.64 | Y 1.86 | R 1.47 | P 2.33 | K 2.6 | F 1.88 | N 2.44

Variants of: B2
Test: as above
Settings: c terminus: a fixed tail appended

Protein stability index: each site, then its substitutions
M20: D 4.35 | W 3.12 | V 3.7 | Y 2.46 | R 3.57 | K 3.53 | C 3.69 | P 3.92 | L 2.95
R16: Q 4.03 | Y 2.83 | V 3.19 | A 3.84 | N 3.82 | E 3.94 | W 2.76 | F 2.71 | T 3.48 | I 3.21 | L 3.28 | D 3.98 | K 3.52
P6: M 2.07 | S 3.4 | L 2.14 | T 3.49 | F 1.91 | C 2.92 | Y 2.44 | H 2.94 | D 3.95 | I 2.01 | W 2.46 | V 2.48
L7: G 3.48 | W 3.32 | Q 3.68 | D 4.04 | V 3.31 | K 3.88 | C 3.83 | R 3.69 | H 3.88 | I 3.79 | S 4.14 | E 4.08
D9: V 3.04 | H 2.39 | I 2.59 | A 3.07 | K 2.85 | M 2.92 | L 3.05 | G 3.03 | Q 3.35 | E 3.15 | R 3.34 | W 2.44
D24: L 2.46 | S 3.27 | V 3.02 | A 2.61 | Y 2.29 | H 2.76 | R 3.07 | N 3.07 | M 2.28 | E 3.53 | W 1.86 | I 1.82 | C 2.86
C5: W 2.72 | D 4.09 | F 3.65 | M 3.83 | K 4.08 | I 3.28 | S 4.17 | T 3.8 | L 3.62
T23: F 2.43 | C 3.8 | G 3.29 | I 3.55 | D 3.85 | A 3.65 | L 3.07 | M 2.78 | P 3.67 | V 2.85
T21: N 3.45 | A 3.6 | K 4.37 | E 4.27 | M 3.23 | P 3.08 | H 2.91 | S 3.52 | Q 3.6 | W 1.65
